Measurements reported in paper PMC5477490.

Key:
[1] = molecular target: HA ectodomain of A/Washington/05/2011(H1N1) (influenza A virus A/Washington/05/2011(H1N1)); assay: not stated; purified HA ectodomain in solution; data in Supplementary Fig. 2
[2] = molecular target: HA ectodomain of A/Washington/05/2011(H1N1) (influenza A virus A/Washington/05/2011(H1N1)); assay: crystal structure
3E1 Fab, P01857;P01834 = settings: parent: est. 100; read off a plot

Substance	stoichiometry N [1]	stoichiometry N [2]	percent of parent (3E1 Fab, P01857;P01834) [%]
HA ectodomain of A/Washington/05/2011(H1N1) (domain or fragment)	3	3	–
full-length, wild-type HA from A/Washington/05/2011 (H1N1) HA1:H18Q	–	–	1
full-length, wild-type HA from A/Washington/05/2011 (H1N1) HA1:NAT	–	–	2
full-length, wild-type HA from A/Washington/05/2011 (H1N1) HA2:D19N	–	–	7
full-length, wild-type HA from A/Washington/05/2011 (H1N1) HA2:I45F	–	–	1
